According to paper PMC12102759:

B1: NOTCH4 peptide 1604-1619 (Neurogenic locus notch homolog protein 4), 16-mer library wild type / NSP9 (ORF1ab Nsp9, residues 4141-4253) (parent)
chain 1: TFQGAWLGAPEPWEPL
chain 2: NNELSPVALRQMSCAAGTTQTACTDDNALAYYNTTKGGRFVLALLSDLQDLKWARFPKSDGTGTIYTELEPPCRFVTDTPKGPKVKYLYFIKGLNNLNRGMVLGSLAATVRLQ
B2: TET3 peptide 460-475 (Methylcytosine dioxygenase TET3), 16-mer library wild type / NSP3 SUD-M (ORF1ab Nsp3c SUD-M, residues 1356-1493) (parent)
chain 1: MAELEQLLGSASDYIQ
chain 2: LPSIISNEKQEILGTVSWNLREMLAHAEETRKLMPVCVETKAIVSTIQRKYKGIKIQEGVVDYGARFYFYTSKTTVASLINTLNDLNETLVTMPLGYVTHGLNLEEAARYMRSLKVPATVSVSSPDAVTAYNGYLTSS
B3: NCOA2 peptide 1075-1090 (Nuclear receptor coactivator 2), 16-mer library wild type / NSP3 UBl1 (ORF1ab Nsp3a Ub1, residues 819-925) (parent)
chain 1: DEGALLDQLYLALRNF
chain 2: APTKVTFGDDTVIEVQGYKSVNITFELDERIDKVLNEKCSAYTVELGTEVNEFACVVADAVIKTLQPVSELLTPLGIDLDEWSMATYYLFDESGEFKLASHMYCSFY

Variants of: B1
Settings: with NSP9 (ORF1ab Nsp9, residues 4141-4253); bait immobilised on MaxiSorp plates (10 µg), library pre-cleared on GST, 2 h binding at 4 °C, five washes; one round per day, days 1-4; value from days 2 and 3; keep out of graded; scale: average fractional NGS count over selection days 2 and 3

Variant	screen value
chain 1 TFQGAWLGADEPWEPL	0
chain 1 TFQGAWLGAQEPWEPL	0
chain 1 TFQGAILGAPEPWEPL	0
chain 1 TFQGAWLGAPDPWEPL	0
chain 1 TFVGAWLGAPEPWEPL	0
chain 1 TFQGAWLGAPEPWLPL	7.93e-05
chain 1 TFQGAWLGAPEPWFPL	3.92e-05
chain 1 TFQGAWLGAPEPWVPL	0.000155
chain 1 TFQGAWLKAPEPWEPL	0
chain 1 TFQGAWMGAPEPWEPL	0
chain 1 TFQGAWIGAPEPWEPL	0
chain 1 TFQGAWDGAPEPWEPL	0
chain 1 TFQGDWLGAPEPWEPL	0
chain 1 TFQGTWLGAPEPWEPL	0
chain 1 TFQGEWLGAPEPWEPL	0
chain 1 TFQGAWLGAPEPWEPT	0

Variant	screen value
chain 1 TFQPAWLGAPEPWEPL	0
chain 1 TFQLAWLGAPEPWEPL	0
chain 1 TLQGAWLGAPEPWEPL	0
chain 1 TIQGAWLGAPEPWEPL	0
chain 1 TWQGAWLGAPEPWEPL	0
chain 1 TVQGAWLGAPEPWEPL	0
chain 1 TGQGAWLGAPEPWEPL	5.47e-05
chain 1 TFQGAWLGAPEPQEPL	0
chain 1 TFQGAWLGAPEPMEPL	0
chain 1 TFQGAWLGAPEAWEPL	3.02e-05
chain 1 TFQGAWLGAPEKWEPL	8.35e-05
chain 1 TFQGAWLGAPERWEPL	8.09e-05
chain 1 TFQGAWLGAPEWWEPL	0
chain 1 TFQGAWLGAPEYWEPL	2.09e-05
chain 1 TFQGAWLGAPEHWEPL	9.54e-05

Variants of: B2
Settings: with NSP3 SUD-M (ORF1ab Nsp3c SUD-M, residues 1356-1493); bait immobilised on MaxiSorp plates (10 µg), library pre-cleared on GST, 2 h binding at 4 °C, five washes; one round per day, days 1-4; value from days 2 and 3; keep out of graded; scale: average fractional NGS count over selection days 2 and 3

Variant	screen value
chain 1 MAELEQLLGSAPDYIQ	0
chain 1 MAELEQLLGSASDYMQ	0
chain 1 MAELEQLLGSASDYRQ	0
chain 1 MAELEQLLGSASDYGQ	0
chain 1 MAELKQLLGSASDYIQ	0
chain 1 MAELDQLLGSASDYIQ	0.000325
chain 1 MAELWQLLGSASDYIQ	0
chain 1 MANLEQLLGSASDYIQ	0
chain 1 MAQLEQLLGSASDYIQ	0
chain 1 MATLEQLLGSASDYIQ	0.000884
chain 1 MAMLEQLLGSASDYIQ	0
chain 1 MAWLEQLLGSASDYIQ	6.52e-05
chain 1 MAELEYLLGSASDYIQ	0
chain 1 MAELESLLGSASDYIQ	0
chain 1 MAELEPLLGSASDYIQ	0
chain 1 MAELEKLLGSASDYIQ	0
chain 1 MAELEGLLGSASDYIQ	0
chain 1 GAELEQLLGSASDYIQ	0
chain 1 TAELEQLLGSASDYIQ	0
chain 1 KAELEQLLGSASDYIQ	0
chain 1 RAELEQLLGSASDYIQ	0
chain 1 HAELEQLLGSASDYIQ	0
chain 1 MWELEQLLGSASDYIQ	0
chain 1 MHELEQLLGSASDYIQ	3.41e-05

Variant	screen value
chain 1 MTELEQLLGSASDYIQ	0
chain 1 MRELEQLLGSASDYIQ	0
chain 1 MAELEQLIGSASDYIQ	0
chain 1 MAELEQLEGSASDYIQ	0
chain 1 MAELEQLSGSASDYIQ	0
chain 1 MAELEQLWGSASDYIQ	0
chain 1 MAELEQLLGGASDYIQ	0
chain 1 MAELEQLLGSASDTIQ	0
chain 1 MAELEQLLGSASDFIQ	0
chain 1 MAELEQLLGSWSDYIQ	0
chain 1 MAELEQLLGSNSDYIQ	0
chain 1 MAELEQLLGSASSYIQ	0
chain 1 MAELEQLLGSASGYIQ	0
chain 1 MAELEQLLGSASFYIQ	0
chain 1 MAELEQLLGSASNYIQ	0
chain 1 MAELEQLLGSASIYIQ	0
chain 1 MAEREQLLGSASDYIQ	0
chain 1 MAEGEQLLGSASDYIQ	0
chain 1 MAEYEQLLGSASDYIQ	0
chain 1 MAEMEQLLGSASDYIQ	0
chain 1 MAELEQNLGSASDYIQ	0
chain 1 MAELEQQLGSASDYIQ	0
chain 1 MAELEQPLGSASDYIQ	0
chain 1 MAELEQTLGSASDYIQ	0

Variants of: B3
Settings: with NSP3 UBl1 (ORF1ab Nsp3a Ub1, residues 819-925); bait immobilised on MaxiSorp plates (10 µg), library pre-cleared on GST, 2 h binding at 4 °C, five washes; one round per day, days 1-4; value from days 2 and 3; keep out of graded; scale: average fractional NGS count over selection days 2 and 3

Variant	screen value
chain 1 DEGYLLDQLYLALRNF	0.00107
chain 1 DEGLLLDQLYLALRNF	7.15e-06
chain 1 DERALLDQLYLALRNF	2.99e-05
chain 1 DENALLDQLYLALRNF	7.33e-06
chain 1 DEGALDDQLYLALRNF	0
chain 1 DEGALEDQLYLALRNF	0
chain 1 DEGALGDQLYLALRNF	0
chain 1 DEGALLDQLYLWLRNF	0
chain 1 DNGALLDQLYLALRNF	0
chain 1 DEGALLDQTYLALRNF	0
chain 1 DEGALLDQKYLALRNF	0
chain 1 DEGALLDQVYLALRNF	1.9e-05
chain 1 DEGALLDQIYLALRNF	7.34e-06
chain 1 DEGALLDQHYLALRNF	0
chain 1 DEGALLDQLYLALRLF	0.000158
chain 1 DEGALLDQLYLALRVF	0.00016
chain 1 DEGALLDQLYLALRFF	0.113
chain 1 DEGALLDQLYLALRHF	5.47e-06
chain 1 DEGALLDQLYLALRIF	2.73e-05
chain 1 DEGALLDQLYLALRAF	1.68e-05
chain 1 DEGALLDQLYLALKNF	0
chain 1 DEGALLDQLYLALDNF	0.000475
